Values quoted from earlier work, collected in US7235367B2, “Method using crystal structure of estrogen receptor-β complex” (Genetics Institute, LLC., priority 2000, dated 2007).

Target: ER-β (Homo sapiens, UniProt Q92731)
Settings: co-activator, ER-β versus ER-α

Chain of ER-β (Q92731 whole entry): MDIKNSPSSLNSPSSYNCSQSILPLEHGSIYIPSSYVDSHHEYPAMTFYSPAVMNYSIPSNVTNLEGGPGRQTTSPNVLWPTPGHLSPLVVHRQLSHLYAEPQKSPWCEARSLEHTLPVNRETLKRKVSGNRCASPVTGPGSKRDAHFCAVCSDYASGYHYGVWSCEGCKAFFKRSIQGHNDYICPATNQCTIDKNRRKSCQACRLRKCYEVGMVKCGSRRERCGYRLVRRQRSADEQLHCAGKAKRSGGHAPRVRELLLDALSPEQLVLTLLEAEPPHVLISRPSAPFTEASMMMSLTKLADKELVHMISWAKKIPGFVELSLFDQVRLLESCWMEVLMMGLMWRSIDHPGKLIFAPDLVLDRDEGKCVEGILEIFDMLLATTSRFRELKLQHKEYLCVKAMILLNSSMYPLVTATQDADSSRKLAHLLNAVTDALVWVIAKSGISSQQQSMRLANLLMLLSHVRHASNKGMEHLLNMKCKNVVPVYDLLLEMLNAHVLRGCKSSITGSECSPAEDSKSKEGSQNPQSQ

preferential activation of ER subtype: preferentially activates ER-β
Substance: SRC-1: co-activator protein that preferentially activates ER-β
